Data on one molecule can be found in patent CN107081136A.

For test [1], the target named is Myc-GST融合蛋白 (Myc-GST fusion protein). Nature of the test: ELISA, Myc-GST coated at 5 μg/mL, HRP anti-His secondary antibody, heat-stability test at 70℃. (In general: An ELISA detects its analyte on a solid surface through an enzyme-linked reagent.)
Test [2] shares this target. Description: ELISA, Myc-GST coated at 5 μg/mL, HRP anti-His secondary antibody, heat-stability test at 80℃.
Test [3] shares this target. Description: ELISA, Myc-GST coated at 5 μg/mL, HRP anti-His secondary antibody, heat-stability test at 90℃.

B1: 抗c-Myc标签单域重链抗体 (anti-c-Myc tag single-domain heavy-chain antibody) (VHH, not shown: small tags and cut ends)
VHH: QLQLVESGGGLVQPGGSLRLSCTVSGFPLDNYAIGWLRQAPGKEREGVACISNRGGRTDYVDSVRGRFTISRDNAKKTVYLQMHNLKPEDTGIYYCVAPEMFRPCKLSSEDVRHWGHGTQVTVSS
Take B1: the OD450 in test [1] came out at 1.5 OD450; in test [2] it was 1.3 OD450; in test [3] it was 1.2 OD450.
